Where a chain is given by its changes, count along the chain named.
T1: cGKIα-CBRC (proteinkinase G isoform Iα fused at its C-terminus to the C-terminal fragment of click beetle red … (UniProt P00516 1-671))
T1 construct: cGMP-dependent protein kinase I, alpha isoform (cGKIα, PKGIα); also called PKGIα; cGMP dependent kinase Iα; source: COS-7 cells, calcium phosphate transfection, in living cells; not shown: CBRC (click beetle red luciferase aa 395-542; joined by a 17-residue Gly/Ser linker), C-terminal, kept
T1 sequence (looked up): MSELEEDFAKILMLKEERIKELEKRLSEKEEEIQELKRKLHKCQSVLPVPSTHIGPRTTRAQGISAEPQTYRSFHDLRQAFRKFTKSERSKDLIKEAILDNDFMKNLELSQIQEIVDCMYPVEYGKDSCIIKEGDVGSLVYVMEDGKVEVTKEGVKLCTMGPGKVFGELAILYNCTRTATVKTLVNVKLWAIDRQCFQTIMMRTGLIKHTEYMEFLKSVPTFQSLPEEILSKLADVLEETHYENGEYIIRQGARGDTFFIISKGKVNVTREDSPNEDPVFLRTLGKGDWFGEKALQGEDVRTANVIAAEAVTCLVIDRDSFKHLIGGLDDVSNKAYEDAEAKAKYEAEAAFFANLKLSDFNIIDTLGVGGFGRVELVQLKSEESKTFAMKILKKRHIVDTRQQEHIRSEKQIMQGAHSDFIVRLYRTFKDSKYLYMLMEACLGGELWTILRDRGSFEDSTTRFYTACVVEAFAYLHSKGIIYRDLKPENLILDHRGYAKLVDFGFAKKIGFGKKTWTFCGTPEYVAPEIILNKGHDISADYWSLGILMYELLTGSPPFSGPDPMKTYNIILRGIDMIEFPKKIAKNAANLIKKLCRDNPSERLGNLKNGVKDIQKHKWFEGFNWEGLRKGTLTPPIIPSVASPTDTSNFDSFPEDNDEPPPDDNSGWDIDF

B1: CBRN-RGS2 (regulator of G-protein signaling 2 fused at its N-terminus to the N-terminal fragment of click beetle red luciferase) (natural protein, UniProt P41220 1-211, looked up)
chain: MQSAMFLAVQHDCRPMDKSAGSGHKSEEKREKMKRTLLKDWKTRLSYFLQNSSTPGKPKTGKKSKQQAFIKPSPEEAQLWSEAFDELLASKYGLAAFRAFLKSEFCEENIEFWLACEDFKKTKSPQKLSSKARKIYTDFIEKEAPKEINIDFQTKTLIAQNIQEATSGCFTTAQKRVYSLMENNSYPRFLESEFYQDLCKKPQITTEPHAT
notes: regulator of G-protein signaling 2 (RGS2); cDNA from pCMV6_RGS2 (OriGene); source: COS-7 cells, calcium phosphate transfection, in living cells; not shown: CBRN (click beetle red luciferase aa 1-416; joined by a 17-residue Gly/Ser linker), N-terminal, kept
B2: cGKIα in primary mesangial cells (enzyme, UniProt P0C605 1-671, looked up)
chain: T1 sequence (looked up) with E227D, K265Q, N275S, N656S
notes: cGMP-dependent protein kinase I, alpha isoform, in primary mesangial cells; also called the kinase; PKGIα

Tests used:
[1] = biological target: T1, cGKIα-CBRC (proteinkinase G isoform Iα …); assay: split reporter (BiFC, NanoBiT); click beetle red luciferase complementation (CBRN/CBRC) in co-transfected COS-7 cells, 15 µg DNA, vector ratios 1:25 to 1:100 (mostly 1:50); cells untreated or stimulated for 24 h with 8-Br-cGMP (0.5-2.5 mM), 8-pCPT-cGMP (100-500 µM) or 8-Br-cAMP (0.125-1 mM); Bright-Glo reagent, plate reader, RLU; settings: partners not purified
[2] = biological target: the molecule itself; assay: Western blot of monomer and dimer under non-reducing conditions; primary mesangial cells, control or stimulated with H2O2, non-reducing conditions (Figure S3)

Binder	fold signal amplification (100 µM 8-pCPT-cGMP, treated/untreated) [1]	fold signal amplification (200 µM 8-pCPT-cGMP, treated/untreated) [1]	fold signal amplification (0.5 mM 8-Br-cGMP, treated/untreated) [1]	fold signal amplification (500 µM 8-pCPT-cGMP, treated/untreated) [1]	fold signal amplification (1 mM 8-Br-cGMP, 24 h, against basal luminescence) [1]	fold signal amplification (1 mM 8-Br-cGMP, treated/untreated) [1]	fold signal amplification (2.5 mM 8-Br-cGMP, treated/untreated) [1]	stoichiometry N [2]
B1	3.5 fold	3.8 fold	2.2 fold	3.9 fold	~3.5 fold	3.6 fold	2.8 fold	
B2								2

Reference: publication PMC5979328, “Establishing a Split Luciferase Assay for Proteinkinase G (PKG) Interaction Studies” (International Journal of Molecular Sciences, 2018)
